WO1989007452A1

Target: Campath-1 antigen (partially purified, obtained from a glycolipid extract from human spleen) (human) (UniProt P31358)
Experiment: direct binding ELISA on partially purified Campath-1 antigen coated on microtitre wells; detected with biotin-labelled anti-rat IgG2b; antibody concentration at 50% binding

RaVHCAMP-RaIgG2B (cloned rat heavy chain variable domain of YTH 34.5HL on rat IgG2b constant domains, with rat kappa light chain) (from UniProt P20761 1-333) (antibody)
EC50: 1.01 µg/mL
